In paper PMC5714350:

Columns and labels:
P27838 [1] = assay: dynamic light scattering; CyaY 2 mg/ml (0.16 mM) with ammonium iron (II) sulfate, Fe2+:protein 1:1, 2:1, 4:1, 6:1, 8:1, 10:1; 1 h at 30°C; volume distribution; conditions: other: dynamic light scattering
P27838 [2] = assay: dynamic light scattering; CyaY with Fe2+ 6:1 (DFO also 8:1) for 15 min, then chelator (deferiprone, DFO or BIPY) at 3 times the amount of iron; conditions: other: dynamic light scattering

B1: E. coli frataxin CyaY (protein)
chain: MNDSEFHRLADQLWLTIEERLDDWDGDSDIDCEINGGVLTITFENGSKIIINRQEPLHQVWLATKQGGYHFDLKGDEWICDRSGETFWDLLEQAATQQAGETVSFR
- % of particles with hydrodynamic radius 3.0–5.9 nm (oligomers), with iron (Fe2+ 6:1) (P27838 [1]): 77%
- % of particles with hydrodynamic radius 6–8.5 nm (oligomers), with iron (Fe2+ 8:1) (P27838 [1]): about 74% of the particles having a hydrodynamic radius in the range of 6–8.5 nm
- % of particles with hydrodynamic radius 8.5–14 nm (oligomers), with iron (Fe2+ 6:1) (P27838 [1]): 23%
- % of particles with hydrodynamic radius 8.5–14 nm (oligomers), with iron (Fe2+ 8:1) (P27838 [1]): (25% and 1%, respectively, not shown)
- % of particles with hydrodynamic radius 8.5–14 nm (oligomers), with iron (Fe2+ 10:1) (P27838 [1]): 8.5–14 nm (83%)
- % of particles with hydrodynamic radius 26–40 nm (oligomers), with iron (Fe2+ 10:1) (P27838 [1]): 26–40 nm (17%)
- % of particles with hydrodynamic radius >100 nm, with iron (Fe2+ 8:1) (P27838 [1]): (25% and 1%, respectively, not shown)
- % of particles in the monomer range (hydrodynamic radius 1.6–2.1 nm), with iron (Fe2+ 6:1) and BIPY (P27838 [2]): 76%
- % of particles in the monomer range (hydrodynamic radius 1.6–2.1 nm), with iron (Fe2+ 6:1) and DFO (P27838 [2]): 93%
- % of particles with hydrodynamic radius 2.2–2.9 nm (smaller oligomers), with iron (Fe2+ 6:1) and deferiprone (P27838 [2]): 95%
- % of particles with hydrodynamic radius 6.0–8.5 nm (oligomers), with iron (Fe2+ 6:1) and BIPY (P27838 [2]): 24%
- % of particles with hydrodynamic radius 6.0–8.5 nm (oligomers), with iron (Fe2+ 6:1) and DFO (P27838 [2]): 7%
- % of particles with hydrodynamic radius 8.5–14 nm (oligomers), with iron (Fe2+ 6:1) and deferiprone (P27838 [2]): 5%
- % of particles with hydrodynamic radius 8.5–14 nm (oligomers), with iron (Fe2+ 8:1) and DFO (P27838 [2]): (8.5–14 nm, 100%, Fig 3B)
